Drawing on publication PMC12740422, this text covers stoichiometry N for one substance.

By stoichiometry N is commonly meant the number of molecules, sites or subunits per partner or assembly.

Experiment [1] has as its target AcrIE9 (Pseudomonas aeruginosa). Put plainly: SEC; analytical SEC of the pooled dimeric species of AcrIE9 alone, Superdex 200 increase 10/300 GL; 150 mM NaCl, 2 mM DTT, 5% glycerol, 20 mM HEPES pH 7.0. On the technique in general: Size exclusion chromatography separates by hydrodynamic size, large species first.
Experiment [2] has the same target. Put plainly: SEC; preparative SEC of AcrIE9 during purification, HiLoad 26/600 Superdex 75 pg; 300 mM NaCl, 5% glycerol, 2 mM DTT, 20 mM HEPES pH 7.0.

Take AcrIE9 (natural protein): the stoichiometry N in experiment [1] and in experiment [2] was 2 each time.
